Read-outs that look alike come from different tables or passages of the source.

Series [1] has as its target T1, Hfq65 R16A/R17A (Escherichia coli, UniProt P0A6X3 1-65, R16A;R17A). The series is described as follows: NMR titration.
For the next series, the target named is HfqFL F42S (Escherichia coli, UniProt P0A6X3 1-102, F42S). The series is described as follows: fluorescence polarization. (Fluorescence polarisation rises when a labelled molecule tumbles more slowly, as on binding a larger partner.)
Another series concerns the target HfqFL WT (Escherichia coli, UniProt P0A6X3 1-102). The series is described as follows: EMSA.
In another series the target is HfqFL Y25A (Escherichia coli, UniProt P0A6X3 1-102, Y25A). The series is described as follows: fluorescence polarization.
For series [2], the target named is T2, Hfq65 (Escherichia coli, UniProt P0A6X3 1-65). The series can be described thus: X-ray crystallography.
Series [3] deals with T2, Hfq65. The series is described as follows: X-ray crystallography. This is another data set of the same source.
Series [4] has as its target T1, Hfq65 R16A/R17A. The series can be described thus: NMR titration. This is another data set of the same source.

Turning to AACAACAAG (ssRNA) [rpoS-AC (unlabeled)], in the series with Hfq65 R16A/R17A [1], the binding result is “binds”.
As to AACAACAAG (ssRNA) [rpoS-AC], in the series with HfqFL F42S, the binding result is given as “binds”.
For GGGAACAACAAGAAGUUAAGGCGGGGCAAAAAAUA (ssRNA) [rpoS-AA], the binding result in the series with HfqFL WT is recorded as “binds”.
For AUUUUUUA (ssRNA) [AU6A], the binding result with HfqFL Y25A is on record as “binds”.
Take AAAAAAA (ssRNA) [A7]: the binding result with HfqFL F42S is given as “binds”.
In the case of AAAAAAA (ssRNA) [A7 (unlabeled)], the binding result with Hfq65 [2] is listed as “binds”.
On to AUUUUUUA (ssRNA) [AU6A (unlabeled)], for which the binding result in the series with Hfq65 [3] and with Hfq65 R16A/R17A [4] was “binds” in each case.
